From paper doi:10.1101/2020.06.24.169508

Molecular target: Vibrio campbellii chitoporin VhChiP, wild type (Vibrio campbellii (formerly Vibrio harveyi) BAA-1116)
Assay: SEC

Vibrio campbellii chitoporin VhChiP, wild type (natural protein)
stoichiometry N: 3
